Experiment [1] concerns the target T1, human CD39 (full length, on cells) (human, UniProt P49961 1-510).
T1 construct: Recombinant on CHOK1-hCD39 cells or natural on SK-MEL-28, SK-MEL-5 and MOLP-8 cells; the cell line is named under assay; also called hCD39; ENTPD1
T1 sequence: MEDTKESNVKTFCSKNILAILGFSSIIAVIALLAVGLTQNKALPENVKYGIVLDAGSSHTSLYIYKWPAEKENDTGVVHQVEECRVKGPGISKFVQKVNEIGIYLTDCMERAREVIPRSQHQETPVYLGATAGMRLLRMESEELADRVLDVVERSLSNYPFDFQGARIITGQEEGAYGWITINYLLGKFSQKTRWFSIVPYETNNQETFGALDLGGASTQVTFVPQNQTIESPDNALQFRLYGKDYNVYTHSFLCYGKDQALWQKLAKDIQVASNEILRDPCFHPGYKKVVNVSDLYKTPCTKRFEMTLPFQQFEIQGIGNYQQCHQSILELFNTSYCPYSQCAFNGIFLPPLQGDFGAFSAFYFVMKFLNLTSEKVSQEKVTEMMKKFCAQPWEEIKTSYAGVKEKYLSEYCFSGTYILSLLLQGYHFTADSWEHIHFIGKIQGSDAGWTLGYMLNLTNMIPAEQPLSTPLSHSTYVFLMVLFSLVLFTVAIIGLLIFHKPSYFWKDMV
Nature of the experiment: FACS, MOLP-8 cells. How it is done:
Similarly, human CD39 expressing cells SK-MEL-5, SK-MEL-28 or MOLP-8, were incubated with a gradient concentration of anti-CD39 antibodies for 30 minutes at 4° C. Cells were washed 3 times using FACS buffer and next incubated with fluorescence labelled secondary antibody (goat-anti-mouse IgG or goat anti-human IgG) for 30 minutes at 4° C. Cells were washed 3 times and then re-suspended in FACS buffer and analyzed by flow cytometry analysis on BD Celesta. Data plotted and analyzed using GraphPad Prism 8.02.
Binding affinity of the humanized antibodies hu23.H5L5 and hu14.H1L1 were tested on different cells by FACS following the similar method as described in Example 3.2.
Reference antibodies T895 and 1394 were tested in parallel as control antibodies. As shown in FIG. 12 and summarized in Table 23, both antibodies hu23.H5L5 and hu14.H1L1 bound to human and cynomolgus CD39 expressing cells in a dose-dependent manner and with similar affinity by EC₅₀ at a sub-nanomolar or nanomolar level. Neither of them recognized mouse CD39 in the FACS study. Maximum signal (mean fluorescence intensity, MFI) differed between cells for each antibody may result from their different expression level.
On the technique in general: A flow cytometer gives signals particle by particle.

The target in experiment [2] is T2, KW27-2 (human CD39 mutant, C-terminal EGFP) (human, UniProt P49961 1-510).
T2 construct: expressed on HEK293F cells; not shown: C-terminal EGFP fusion (vector pCMV3-GFPSpark)
T2 chain: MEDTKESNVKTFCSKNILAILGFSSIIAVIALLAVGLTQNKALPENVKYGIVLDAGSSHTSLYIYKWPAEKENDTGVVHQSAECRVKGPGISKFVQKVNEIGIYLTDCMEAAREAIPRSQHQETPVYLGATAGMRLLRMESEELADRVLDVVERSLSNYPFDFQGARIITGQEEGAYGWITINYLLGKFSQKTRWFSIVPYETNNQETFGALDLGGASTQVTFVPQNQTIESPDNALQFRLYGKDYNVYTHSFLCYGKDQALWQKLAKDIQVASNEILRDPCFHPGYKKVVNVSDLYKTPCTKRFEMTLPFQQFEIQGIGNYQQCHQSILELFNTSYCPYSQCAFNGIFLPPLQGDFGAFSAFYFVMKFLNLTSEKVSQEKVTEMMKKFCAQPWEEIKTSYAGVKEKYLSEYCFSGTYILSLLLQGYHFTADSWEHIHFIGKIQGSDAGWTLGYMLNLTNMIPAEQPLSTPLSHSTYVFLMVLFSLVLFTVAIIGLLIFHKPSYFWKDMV
Nature of the experiment: FACS on transfected HEK293F cells, relative binding = AlexaFluor647 / GFP. The method, then:
(§1) Briefly, the human CD39 mutants were generated by gene synthesis and then cloned into an expression vector pCMV3-GFPSpark. The vectors containing the validated mutated sequences were prepared and transfected into HEK293F cells. Three days post transfection, the cells were collected to testing EGFP for transgene expression. A range of dosages of antibodies (start from 100 nM, 3-folds dilution, 11 points) were tested on the 20 generated mutants and stained by AlexFluor647 labelled anti-hIgG by FACS. Antibody binding was descripted as relative binding which is derived from AlexFluor647 intensity divided by GFP intensity.

Experiment [3] concerns the target T3, KW27-16 (human CD39 mutant, C-terminal EGFP) (human, UniProt P49961 1-510).
T3 construct: expressed on HEK293F cells; not shown: C-terminal EGFP fusion (vector pCMV3-GFPSpark)
T3 chain: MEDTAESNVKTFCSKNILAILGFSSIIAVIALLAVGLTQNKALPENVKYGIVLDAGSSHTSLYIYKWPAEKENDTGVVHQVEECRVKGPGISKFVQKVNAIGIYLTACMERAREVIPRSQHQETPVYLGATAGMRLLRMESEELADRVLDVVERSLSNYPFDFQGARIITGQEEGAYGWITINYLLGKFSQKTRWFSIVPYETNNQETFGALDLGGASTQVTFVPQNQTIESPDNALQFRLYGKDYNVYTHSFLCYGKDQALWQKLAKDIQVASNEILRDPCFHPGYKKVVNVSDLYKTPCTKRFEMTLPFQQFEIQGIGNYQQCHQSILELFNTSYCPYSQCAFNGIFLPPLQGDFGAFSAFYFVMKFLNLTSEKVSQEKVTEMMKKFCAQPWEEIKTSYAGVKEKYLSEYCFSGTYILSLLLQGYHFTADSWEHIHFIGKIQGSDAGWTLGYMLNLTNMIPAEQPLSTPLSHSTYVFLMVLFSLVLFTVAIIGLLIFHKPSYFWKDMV
The experiment is described as above. The method, then: as §1

The record followed here is patent US20210388105A1 (ELPISCIENCE SUZHOU BIOPHARMA, published 2021).

In general, EC50 refers to the concentration that produces a half-maximal response.

B1: Antibody T895 (antibody, V domains shown)
VH: EVQLQQSGPELVKPGASVKMSCKASGYTFTDYNMHWVKQSHGRTLEWIGYIVPLNGGSTFNQKFKGRATLTVNTSSRTAYMELRSLTSEDSAAYYCARGGTRFAYWGQGTLVTVSA
VL: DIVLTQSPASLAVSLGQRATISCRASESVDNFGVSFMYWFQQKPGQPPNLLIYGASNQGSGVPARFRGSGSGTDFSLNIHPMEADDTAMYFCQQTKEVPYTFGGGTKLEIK
notes: also called 31895
Turning to B1, a half-maximal response in experiment [1] (EC50) required 110 pM. For the same molecule, the binding result in experiment [2] and in experiment [3] was “binds” each time.

B2: hu23.H5L5 (antibody, V domains shown)
VH: QVQLVQSGAEVKKPGASVKVSCKASGYNLKDTFLHWVRQAPGQGLEWMGRIDPANGNIKYDPKFQGRVTITADTSANTAYMELISLRSEDTAVYYCANSPYYYGSGYRIFDVWGQGTTVTVSS
VL: QIVLTQSPATLSLSPGERATLSCSAFSSVNYMHWYQQKPGQAPRLLIYTTSNLASGIPTRFSGSGSGTSYTLTISSLEPEDFAVYYCQQRSTYPFTFGQGTKLEIK
notes: humanized c23
As for B2, the EC50 in experiment [1] turned out to be 140 pM. In addition, the binding result in experiment [2] and in experiment [3] was “binds” throughout.

B3: c34 (antibody, V domains shown)
VH: EIQVQQSGPELVKPGASVKVSCKASGYSFTDYNMYWVKQSHGKSLEWIGFIDPYNGYTSYNQKFKGKATLTIDKSSSTAFMHLNSLTSEDSAVYYCAIYGYDDAYYFDYWGQGTTLTVSS
VL: QIVLTQSPAIMSASPGEKVTITCSATSSVSYMHWFRQKPGTSPKLWIYSTSNLASGVPARFSGSGSGTSYSLTISRMAAEDAATYYCQQRITYPFTFGSGTKLEIT
notes: its making is not described; also called chimeric antibody c34
Turning to B3, the binding result in experiment [2] was “binds”; in experiment [3], “no binding”.

B4: Antibody 9-8B (antibody, V domains shown)
VH: QIQLVQSGPELKKPGETVKISCKASGYTFTHYGMNWVKQAPGKGLKWMGWINTYTGELTYADDFKGRFAFSLETSASTAYLQINNLKNEDTATYFCARRAYYRYDYVMDYWGQGTSVTVSS
VL: DIVMTQSQKFMSTSVGDRVSVTCKASHNVGTNVAWYQQKPGQSPKALIYSASYRYSGVPGRFTGSGSGTDFTLTISNVQSEDLAEYFCHQYNNYPYTFGGGTKLEIK
For the molecule B4, the binding result in experiment [2] and in experiment [3] was “binds” in each case.
